Key:
[1] = target: purified PP2A/B55α holoenzyme (trimeric Flag-B55α/PP2A holoenzyme), P63151;P30153;P67775; experiment: peptide competition of GST-p107 R1R2 pull-down of purified PP2A/B55α, western blot quantified with ImageJ; settings: lower B55α signal = peptide competes for B55α, read off a plot
Flag-pRB = Flag-pRB (UniProt P06400); experiment: co-immunoprecipitation (anti-Myc IP), western blot quantitation; settings: 293T cells, co-transfected; parent: est. 1.0; read off a plot
B55α = experiment: YFP pulldown, mass spectrometry; settings: -log10 p-value est. 2.6; read off a plot
PP2A/A = experiment: YFP pulldown, mass spectrometry; settings: -log10 p-value est. 2.2; read off a plot
[2] = target: T1, purified monomeric full-length B55α (M1-N447) (UniProt P63151 1-447); experiment: NMR titration; 2D [1H,15N] HSQC of 15N-labeled p107 (M612-S687) with and without unlabeled B55α mixed at 1:1 ratio; 283 K; 20 mM sodium phosphate pH 6.8, 250 or 50 mM NaCl, 0.5 mM TCEP; settings: both partners purified
T1 construct: B55α M1-N447; also called B55α_(1-447); purified B55α; source: Expi293F, transfected, purified (GFP-nanobody beads, TEV cleavage, Mono Q); not shown: His6, N-terminal, cleaved; GFP, N-terminal, cleaved
T1 sequence (looked up): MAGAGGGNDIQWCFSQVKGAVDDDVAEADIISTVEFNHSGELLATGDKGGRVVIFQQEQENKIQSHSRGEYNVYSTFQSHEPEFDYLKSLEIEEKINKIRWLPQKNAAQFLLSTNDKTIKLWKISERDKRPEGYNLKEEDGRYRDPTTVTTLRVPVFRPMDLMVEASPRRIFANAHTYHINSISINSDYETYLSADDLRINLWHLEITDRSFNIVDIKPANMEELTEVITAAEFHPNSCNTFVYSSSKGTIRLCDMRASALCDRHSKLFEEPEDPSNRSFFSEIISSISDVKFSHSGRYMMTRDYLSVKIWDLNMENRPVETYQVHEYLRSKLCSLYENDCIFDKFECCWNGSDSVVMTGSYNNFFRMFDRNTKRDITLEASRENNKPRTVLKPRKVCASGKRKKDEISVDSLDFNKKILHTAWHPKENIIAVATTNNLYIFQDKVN

[3] = peptide 120 µM, no-peptide control est. 0.68
[4] = peptide 240 µM, no-peptide control est. 0.68, parent: est. 0.07
[5] = Peptides (at 300 µM), no-peptide control est. 0.72, parent: est. 0.32
[6] = Peptides (at 300 µM), no-peptide control est. 0.68, parent: est. 0.09
[7] = Peptides (at 300 µM), no-peptide control est. 0.68, parent: est. 0.08

Flag-pRB, sequence (P06400 whole entry): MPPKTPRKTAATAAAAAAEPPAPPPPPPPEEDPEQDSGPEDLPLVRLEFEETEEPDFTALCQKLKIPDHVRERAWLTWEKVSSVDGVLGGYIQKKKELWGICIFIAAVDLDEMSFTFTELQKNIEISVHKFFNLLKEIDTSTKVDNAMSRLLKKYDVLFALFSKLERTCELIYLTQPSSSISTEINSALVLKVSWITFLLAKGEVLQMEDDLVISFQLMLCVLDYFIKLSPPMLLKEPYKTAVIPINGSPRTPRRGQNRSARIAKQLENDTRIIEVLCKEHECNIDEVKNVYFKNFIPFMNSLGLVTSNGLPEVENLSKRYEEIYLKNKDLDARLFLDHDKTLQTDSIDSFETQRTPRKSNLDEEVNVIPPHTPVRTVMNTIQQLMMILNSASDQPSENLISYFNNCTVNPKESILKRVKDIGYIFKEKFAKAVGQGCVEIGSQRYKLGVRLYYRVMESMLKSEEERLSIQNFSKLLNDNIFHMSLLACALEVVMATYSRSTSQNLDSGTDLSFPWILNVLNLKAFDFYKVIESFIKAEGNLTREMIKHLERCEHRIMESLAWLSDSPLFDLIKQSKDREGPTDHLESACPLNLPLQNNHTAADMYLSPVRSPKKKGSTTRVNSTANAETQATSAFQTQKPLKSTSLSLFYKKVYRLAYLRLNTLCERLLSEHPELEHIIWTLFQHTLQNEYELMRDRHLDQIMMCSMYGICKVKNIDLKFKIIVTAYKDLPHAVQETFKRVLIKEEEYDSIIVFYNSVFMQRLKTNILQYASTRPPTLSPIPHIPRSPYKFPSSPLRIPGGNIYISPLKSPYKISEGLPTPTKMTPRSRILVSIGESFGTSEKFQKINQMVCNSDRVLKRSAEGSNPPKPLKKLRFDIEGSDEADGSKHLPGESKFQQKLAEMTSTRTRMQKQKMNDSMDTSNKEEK

“R1 peptide (synthetic p107 peptide encompassing the R1 region) E624A; V625A; R626A” was tested, and the response [1, 3] was 0.56 and the response [1, 4] was 0.57.

Work on “R1 peptide (synthetic p107 peptide encompassing the R1 region) H619A” yielded a response [1, 5] of 0.38.

pS615-R1 phosphopeptide, wildtype R621A was tested, and the response [1, 6] was 0.82.

For “R1 peptide (synthetic p107 peptide encompassing the R1 region) R621A; V622A; K623A”, the response [1, 3] was 0.8 and the response [1, 4] was 0.92.

In the case of “R1 peptide (synthetic p107 peptide encompassing the R1 region) E624A”, the response [1, 7] is reported as 0.02.

For “Myc-B55α wild type (from UniProt P63151) EEK-AAA”, the ratio to parent (Flag-pRB) was 0.28.

“R1 peptide (synthetic p107 peptide encompassing the R1 region) M618A; H619A; P620A” gave a response [1, 3] of 0.43 and a response [1, 4] of 0.41.

In the case of “R1 peptide (synthetic p107 peptide encompassing the R1 region) P620A”, the response [1, 7] is reported as 0.2.

Work on “R1 peptide (synthetic p107 peptide encompassing the R1 region) K623A” yielded a response [1, 5] of 0.03.

In the case of “R1 peptide (synthetic p107 peptide encompassing the R1 region) M618A”, the response [1, 7] is reported as 0.3.

With “R1 peptide (synthetic p107 peptide encompassing the R1 region) V625A” the response [1, 7] was 0.98.

Work on “R1 peptide (synthetic p107 peptide encompassing the R1 region) R626A” yielded a response [1, 5] of 0.08.

“R1 peptide (synthetic p107 peptide encompassing the R1 region) R621A” gave a response [1, 5] of 0.55.

For “R1 peptide (synthetic p107 peptide encompassing the R1 region) V622A”, the response [1, 7] was 0.88.

For “GFP-p107-R1 (four copies of R1) H619A; R621A; V622A; V625A”, the other: log2 ratio WT-Mut (B55α) was 5.5 and the other: log2 ratio WT-Mut (PP2A/A) was 3.2.

Molecule “R1 peptide (synthetic p107 peptide encompassing the R1 region) T627A; D628A; S629A” has a response [1, 3] of 0.04 and a response [1, 4] of 0.02.

For “R1 peptide (synthetic p107 peptide encompassing the R1 region) S615A; P616A; L617A”, the response [1, 3] was 0.25 and the response [1, 4] was 0.1.

pS615-R1 phosphopeptide, wildtype H619A showed a response [1, 6] of 0.6.

B1: p107 (M612-S687) (domain or fragment, UniProt P28749 612-687, looked up)
chain: MPMSPLMHPRVKEVRTDSGSLRRDMQPLSPISVHERYSSPTAGSAKRRLFGEDPPKEMLMDKIITEGTKLKIAPSS
modifications: 15N-labeled
notes: p107 residues M612-S687, which include R1, R2 and R3; also called p107_(612-687); source: E. coli BL21, purified (HisTrap, TEV cleavage, heating at 80°C, SEC); not shown: His6, N-terminal, cleaved; MBP, N-terminal, cleaved
B1: binds [2].

Source: article PMC8575462, “PP2A/B55α substrate recruitment as defined by the retinoblastoma-related protein p107” (eLife, 2021)
